Data on three substances can be found in publication PMC9841416.

In general, pKd refers to −log10 of the Kd, conventionally taken in molar units. A low value points to a large Kd.

pKd: −log10 of the molar value.

The data set has as its target NTH-RNase E D346N D346N (Escherichia coli (K12, P21513-1 in alignment)) (UniProt P21513). Kind of data set: EMSA. Particulars: 25 mM bis-Tris propane pH 8.3, 100 mM KCl, 15 mM CaCl2, 0.1% (v/v) Triton X-100, 1 mM DTT, 20% (v/v) glycerol, 37 C 20 min; 1% agarose gel in 1x TBE. (In general: Mobility shift assays separate free from complexed probe on a gel.)
In turn, glnW-metU segment showed a pKd of 7.57.

In turn, “glnW-tRNA (no flanking single-stranded regions)” showed a pKd of 7.25.

“metU-tRNA with 5' and 3' single-stranded regions”: the pKd is 7.72.
